Numbering of substitutions follows the chain as printed. One block for each binder: values may come before it.
Tests used:
[1] = target: T1, human tau fibrils (HT40, 2N4R) (Homo sapiens, UniProt P10636-8); experiment: flow cytometry on fibril-coated beads
[2] = target: T1, human tau fibrils (HT40, 2N4R); experiment: flow cytometry on fibril-coated beads, competition with monomer
[3] = target: human 0N3R tau fibrils (Homo sapiens, UniProt P10636-2); experiment: far-Western, overlay or dot blot
[4] = target: human α-synuclein fibrils (Homo sapiens (Human)., UniProt P37840); experiment: flow cytometry on fibril-coated beads, competition with monomer

B1: ATA1 (scFv, V domains shown)
VH: QVQLQQSGPGLLKPSETLSLTCVISGDSVSSNSATWNWIRQSPSRGLEWLGRTYFRSKWYNDYAVSVKSRITINPDTSKNQFSLQLNSATPEDTAVYYCARQMDEGVGFDFWGQGTLVTVSS
VL: EIVLTQSPATLSLSPGERATLSCRASQSVSSYLAWYQQKPGQAPRLLIYDASNRATGIPARFSGSGSGTDFTLTISSLEPEDFAVYYCQQRSNWPPTFGQGTRLEIK
EC50 [1]: 6.3 nM

B2: ATA1.458.5 (scFv, V domains shown)
VH: B1 VH with S33F, A34V, S57R
VL: B1 VL with S92H, N93S
binding result [2]: binds

B3: ATA1.459.3 (scFv, V domains shown)
VH: B1 VH with A34V, S57R, K58R, E105K
VL: B1 VL with S92H
binding result [3]: binds

B4: ATA1.458.3 (scFv, V domains shown)
VH: B1 VH with S31T, S33D, A34V, S57R, V65R
VL: B1 VL with S92H
binding result [2]: binds

Now from value to binder:

binding result [4]: binds
B5: H2.3 (antibody, V domains shown)
VH: QVQLQQSGPGLVKPSQTLSLTCAISGDSVSSHSASWNWIRQSPSRGLEWLGRTYYRGKWKTDYAVSVKSRIIINPDTSKNQFSLQLDSVTPEDTAVYFCTRATRGASDYWGQGTLVTVSS
VL: not shown

binding result [4]: binds
B6: H2.4 (antibody, V domains shown)
VH: B5 VH with G57S, K60H, T61N, V65A, S69G
VL: not shown

Source: article doi:10.1101/2023.07.04.547698 (bioRxiv, 2023)
